{"source": "patent US6429304", "about": "(University of California, dated 2002)", "binders": {"B1": {"name": "baculovirus-expressed S. purpuratus katanin p60 subunit with N-terminal His(6) tag (enzyme)", "chain": "HHHHHHMSVDEICENTKMGREYALLGNYETSLVYYQGVLQQIQKLLTSVHEPQRKHQWQTIRQELSQEYEHVKNITKTLNGFKSEPAAPEPAPNHRAAPFSHHQHAAKPAAAEPARDPDVWPPPTPVDHRPSPPYQRAARKDPPRRSEPSKPANRAPGNDRGGRGPSDRRGDARSGGGGRGGARGSDKDKNRGGKSDKDKKAPSGEEGDEKKFDPAGYDKDLVENLERDIVQRNPNVHWADIAGLTEAKRLLEEAVVLPLWMPDYFKGIRRPWKGVLMVGPPGTGKTMLAKAVATECGTTFFNVSSASLTSKYHGESEKLVRLLFEMARFYAPSTIFIDEIDSICSKRGTGSEHEASRRVKSELLIQMDGVSGPSAGEESSKMVMVLAATNFPWDIDEALRRRLEKRIYIPLPEIDGREQLLRINLKEVPLADDIDLKSIAEKMDGYSGADITNVCRDASMMAMRRRIQGLRPEEIRHIPKEELNQPSTPADFLLALQKVSKSVGKEDLVKYMAWMEEFGSV", "notes": "Expressed from pFastBac HT in Sf9 cells; also called p60 katanin; recombinant p60"}, "B2": {"name": "baculovirus-expressed S. purpuratus katanin p80 subunit with N-terminal His(6) tag (other)", "chain": "HHHHHHMATKRAWKLQELVAHSSNVNCLALGPMSGRVMVTGGEDKKVNLWAVGKQNCIISLSGHTSPVDSVKFNSSEELVVAGSQSGTMKIYDLEPAKIVRTLTGHRNSIRCMDFHPFGEFVASGSTDTNVKLWDVRRKGCIYTYKGHSDQVNMIKFSPDGKWLVTASEDTTIKLWDLTMGKLFQEFKNHTGGVTGIEFHPNEFLLASGSSDRTVQFWDLETFQLVSSTSPGASAVRSISFHPDGSYLFCSSQDMLHAFGWEPIRCFDTFSVGWGKVADTVIASTQLIGASFNATNVSVYVADLSRMSTTGIAQEPQSQPSKTPSGGAEEVPSKPLTASGRKNFVRERPHTTSSKQRQPDVKSEPERQSPTQDEGVKDDDATDIKDPDSYAKIFSPKTRVDHSPERNAQPFPAPLDVPGAQEPEPFKHPPKPAAAAAVAPVSRAPAPSASDWQPAQANPAPNRVPAATKPVPAQEVAPSRKPDPISTIIPSDRNKPANLDMDAFLPPAHAQQAPRVNAPASRKQSDSERIEGLRKGHDSMCQVLSSRHRNLDVVRAIWTAGDAKTSVESVVNMKDQAILVDILNIMLLKKSLWNLDMCVVVLPRLKELLSSKYENYVHTSCACLKLILKNFTSLFNQNIKCPPSGIDITREERYNKCSKCYSYLIATRGYVEEKQHVSGKLGSSFRELHLLLDQLE", "notes": "Expressed from pFastBac HT in Sf9 cells; also called p80 katanin; recombinant p80"}}, "key": {"[1]": {"biological_target": "the molecule itself", "assay": "rotary-shadowing electron microscopy of recombinant p60 on mica", "description": "Proteins were adsorbed to mica, freeze-dried, and platinum replicated according to established procedures (Heuser (1989) *J. Electron Microsc. Technique* 13):, 244–263; Heuser (1983) *J. Mol. Biol.* 169: 155–195). Sample preparation and imaging were similar to that used in the imaging of NSF (Hanson et al. (1997) *Cell* 90: 523–535), except that mica flakes were washed with a buffer consisting of 10 mM K-HEPES (pH 7.5), 2 mM MgCl_2, 1 mM nucleotide (ATP or ATP-γ-S)."}, "[2]": {"biological_target": "B2", "assay": "co-immunoprecipitation from insect cells coinfected with p60 and p80 baculoviruses", "description": "Proteins bound to the resin were analyzed by SDS-PAGE followed by staining with Coomassie.\nThe immunoprecipitations were incubated at 4° C. for 1–2 hr, washed five times with 1 ml of ice-cold TBST, and eluted in SDS-containing sample buffer."}, "[3]": {"biological_target": "T1, native S. purpuratus katanin p80 subunit (sea urchin cytosol) (Strongylocentrotus purpuratus, UniProt O61585 1-690)", "T1 construct": "Endogenous protein of sea urchin eggs", "T1 sequence": "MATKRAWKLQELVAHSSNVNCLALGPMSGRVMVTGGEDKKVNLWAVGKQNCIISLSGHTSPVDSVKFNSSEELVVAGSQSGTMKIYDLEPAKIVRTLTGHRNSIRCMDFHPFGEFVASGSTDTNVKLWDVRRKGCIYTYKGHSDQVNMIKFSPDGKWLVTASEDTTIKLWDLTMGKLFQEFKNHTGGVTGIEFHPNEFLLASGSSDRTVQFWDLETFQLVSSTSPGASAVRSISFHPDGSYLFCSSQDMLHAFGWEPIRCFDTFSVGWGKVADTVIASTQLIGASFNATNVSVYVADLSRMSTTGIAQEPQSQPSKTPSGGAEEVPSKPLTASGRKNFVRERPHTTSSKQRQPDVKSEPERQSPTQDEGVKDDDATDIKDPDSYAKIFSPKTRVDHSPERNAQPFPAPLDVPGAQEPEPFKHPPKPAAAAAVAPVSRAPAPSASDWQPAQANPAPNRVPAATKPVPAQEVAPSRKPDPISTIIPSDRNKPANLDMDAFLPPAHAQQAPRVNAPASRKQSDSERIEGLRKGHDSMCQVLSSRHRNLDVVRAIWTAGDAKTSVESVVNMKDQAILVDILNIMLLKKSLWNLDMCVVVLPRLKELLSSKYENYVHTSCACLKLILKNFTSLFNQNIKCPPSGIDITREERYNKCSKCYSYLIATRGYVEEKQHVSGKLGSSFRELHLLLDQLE", "assay": "immunoprecipitation from sea urchin cytosol"}, "[4]": {"biological_target": "T2, in vitro translated S. purpuratus p60 katanin with 37 amino acid N-terminal S-Tag (Strongylocentrotus purpuratus, UniProt O61577 1-516)", "T2 construct": "Made in a rabbit reticulocyte coupled transcription-translation reaction; not shown: 37 amino acid N-terminal S-Tag from pCITE-4a+ (Novagen)", "assay": "co-translation in rabbit reticulocyte lysate, immunoprecipitation with anti-p60 antibody", "description": "(§1) In vitro synthesis of proteins directly from plasmid DNAs was accomplished using the Single Tube Protein System 2, T7 (Novagen). […] For immunoprecipitations, lysates were incubated on ice with Pansorbin (Calbiochem)-antibody complexes, washed in NET buffer (50 mM Tris-Cl (pH 7.5), 150 mM NaCl, 0.1% Nonidet P40, 1 mM EDTA (pH 8.0), 0.25% gelatin and 0.02% sodium azide), then resuspended in SDS-PAGE sample buffer. In vitro translation products in both the pellets and supernatants from the immunoprecipitations were resolved by SDS-PAGE, transferred to nitrocellulose, probed with S-protein HRP conjugate (Novagen) and detected by chemiluminescence."}, "[5]": {"biological_target": "B1", "assay": "baculovirus co-expression, metal affinity purification, Coomassie staining", "text": "We therefore sought to express the two subunits together and separately and then test their enzymatic activities."}, "[6]": {"biological_target": "T2, in vitro translated S. purpuratus p60 …", "assay": "co-translation in rabbit reticulocyte lysate, co-immunoprecipitation with anti-p60 antibody", "description": "as §1"}}, "data": [{"binder": "B1", "values": [{"measurement": "binding result", "setting": "[1]", "result": "binds"}, {"measurement": "binding result", "setting": "[2]", "result": "binds"}]}, {"binder": "native S. purpuratus katanin p60 subunit (unfertilized egg extract / cytosol) (enzyme, Endogenous protein of sea urchin eggs; also called 60 kDa polypeptide) MSVDEICENTKMGREYALLGNYETSLVYYQGVLQQIQKLLTSVHEPQRKHQWQTIRQELSQEYEHVKNITKTLNGFKSEPAAPEPAPNHRAAPFSHHQHAAKPAAAEPARDPDVWPPPTPVDHRPSPPYQRAARKDPPRRSEPSKPANRAPGNDRGGRGPSDRRGDARSGGGGRGGARGSDKDKNRGGKSDKDKKAPSGEEGDEKKFDPAGYDKDLVENLERDIVQRNPNVHWADIAGLTEAKRLLEEAVVLPLWMPDYFKGIRRPWKGVLMVGPPGTGKTMLAKAVATECGTTFFNVSSASLTSKYHGESEKLVRLLFEMARFYAPSTIFIDEIDSICSKRGTGSEHEASRRVKSELLIQMDGVSGPSAGEESSKMVMVLAATNFPWDIDEALRRRLEKRIYIPLPEIDGREQLLRINLKEVPLADDIDLKSIAEKMDGYSGADITNVCRDASMMAMRRRIQGLRPEEIRHIPKEELNQPSTPADFLLALQKVSKSVGKEDLVKYMAWMEEFGSV", "values": [{"measurement": "binding result", "setting": "[3]", "result": "binds"}]}, {"binder": "p80 delta 303-690 (C-terminal truncation of S. purpuratus p80 katanin containing only the WD40 domain), in vitro translated with N-terminal S-Tag (other, the residues kept are derived from the deletion named; also called delta 303-690 derivative of p80; not shown: 37 amino acid N-terminal S-Tag from pCITE-4a+ (Novagen)) MATKRAWKLQELVAHSSNVNCLALGPMSGRVMVTGGEDKKVNLWAVGKQNCIISLSGHTSPVDSVKFNSSEELVVAGSQSGTMKIYDLEPAKIVRTLTGHRNSIRCMDFHPFGEFVASGSTDTNVKLWDVRRKGCIYTYKGHSDQVNMIKFSPDGKWLVTASEDTTIKLWDLTMGKLFQEFKNHTGGVTGIEFHPNEFLLASGSSDRTVQFWDLETFQLVSSTSPGASAVRSISFHPDGSYLFCSSQDMLHAFGWEPIRCFDTFSVGWGKVADTVIASTQLIGASFNATNVSVYVADLSRMS", "values": [{"measurement": "binding result", "setting": "[4]", "result": "no binding"}]}, {"binder": "B2", "values": [{"measurement": "p60:p80 molar ratio in the purified co-expressed protein", "setting": "[5]", "result": "~0.9", "unit": "mol p80 per mol p60"}]}, {"binder": "p80 delta 1-302 (S. purpuratus p80 katanin with the entire WD40 domain deleted), in vitro translated with N-terminal S-Tag (other, the residues kept are derived from the deletion named; also called truncated p80; delta 1-302 derivative of p80; not shown: 37 amino acid N-terminal S-Tag from pCITE-4a+ (Novagen)) TTGIAQEPQSQPSKTPSGGAEEVPSKPLTASGRKNFVRERPHTTSSKQRQPDVKSEPERQSPTQDEGVKDDDATDIKDPDSYAKIFSPKTRVDHSPERNAQPFPAPLDVPGAQEPEPFKHPPKPAAAAAVAPVSRAPAPSASDWQPAQANPAPNRVPAATKPVPAQEVAPSRKPDPISTIIPSDRNKPANLDMDAFLPPAHAQQAPRVNAPASRKQSDSERIEGLRKGHDSMCQVLSSRHRNLDVVRAIWTAGDAKTSVESVVNMKDQAILVDILNIMLLKKSLWNLDMCVVVLPRLKELLSSKYENYVHTSCACLKLILKNFTSLFNQNIKCPPSGIDITREERYNKCSKCYSYLIATRGYVEEKQHVSGKLGSSFRELHLLLDQLE", "values": [{"measurement": "binding result", "setting": "[6]", "result": "binds"}]}]}
